The results in this text go back to patent US20230242590A1.

What all share (assay): UV peptide exchange + HLA class I ELISA
A general note: An ELISA detects its analyte on a solid surface through an enzyme-linked reagent.

Experiment [1] deals with HLA-B*08:01 (human). The note with it: remark: other sources report otherwise.
The target in experiment [2] is HLA-A*03:01 (human).
The target of experiment [3] is HLA-A*11:01 (human).
Experiment [4] has as its target HLA-A*02:01 (human).
Experiment [5] deals with HLA-B*07:02 (human).
Experiment [6] concerns the target HLA-A*24:02 (human).
Experiment [7] deals with HLA-A*01:01 (human). The note with it: remark: other sources report otherwise.
[8] abbreviates: remark: other sources report otherwise.

Like-named read-outs stand apart in the source and are kept apart here.

Consider HLSLRGLPV (modifications not checked) [x52-60], for which the Bindings% (of positive control) in experiment [1] stood at 79.8%.
For the molecule RVHFASPLH (modifications not checked) [p829-837], the Bindings% (of positive control) came to 68.8% in experiment [2] and 39.5% in experiment [3].
For the molecule FAVPNLQSL (modifications not checked) [p407-415], the Bindings% (of positive control) in experiment [4] stood at 33.3%.
In the case of LPIHTAELL (modifications not checked) [p723-731], in experiment [5] (setting [8]), the Bindings% (of positive control) stood at 32.3%.
With LPVCAFSSA (modifications not checked) [x58-66], the Bindings% (of positive control) in experiment [5] (setting [8]) was 52.8%.
Turning to CGYPALMPLY (modifications not checked) [p649-658], the Bindings% (of positive control) in experiment [6] is 38.1%.
Consider MSTTDLEAY (modifications not checked) [x103-111], for which, in experiment [7], the Bindings% (of positive control) turned out to be 30.2%.
STTDLEAYFK (modifications not checked) [x104-113]: in experiment [3] (setting [8]), the Bindings% (of positive control) came to 98.7%.
With PLDKGIKPYY (modifications not checked) [p124-133], the Bindings% (of positive control) in experiment [7] came out at 26.7%.
Turning to VLCLRPVGA (modifications not checked) [x15-23], the Bindings% (of positive control) in experiment [4] (setting [8]) was 31.7%.
For the molecule TTDLEAYFK (modifications not checked) [x105-113], the Bindings% (of positive control) in experiment [7] was determined as 41.7%.
With GPCALRFTS (modifications not checked) [x67-75], in experiment [5], the Bindings% (of positive control) is 26.9%.
As for WPKFAVPNL (modifications not checked) [p404-412], the Bindings% (of positive control) in experiment [5] (setting [8]) was found to be 70.5%.
As for SFCGSPYSW (modifications not checked) [p167-175], in experiment [6], the Bindings% (of positive control) came to 84%.
On the same count and under the same terms, with GYPALMPLY (modifications not checked) [p650-658] the figure was 42.7%; with VFADATPTGW (modifications not checked) [p697-706], 40.4%.
With VLHKRTLGL (modifications not checked) [x92-100], the Bindings% (of positive control) in experiment [1] is 60.8%.
